From PMC12636033, “Chemical Engineering of Transcription Factors Uncovered Cell-Permeable μMax Modulators”

molecular target: WT Max (Homo sapiens, UniProt P61244-2 13-93, M65Nle, norleucine written as M; other non-natural residues written as X); assay: PBM; 50-200 nM protein; PBS, 2% milk, BSA, salmon testes DNA, 0.02% Triton X-100; settings: chain copies: 2; label: surface-attached array probe
Sequence (P61244 other isoform, or with tags, fused parts or gaps M65Nle): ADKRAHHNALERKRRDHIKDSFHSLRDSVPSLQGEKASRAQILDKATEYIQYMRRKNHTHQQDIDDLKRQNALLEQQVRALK

Row | Binder | binding signal
1 | dBr_Jan07_18594 (dsDNA) DNA 1: CCAACATCTAAGACCCTGGTAGGGCCTTTCCGACCCGTCTGTGTTCCGTTGTCCGTGCTG DNA 2: CAGCACGGACAACGGAACACAGACGGGTCGGAAAGGCCCTACCAGGGTCTTAGATGTTGG | -0.86 robust z of log adjusted intensity (ours), mean of two arrays
2 | dBr_Jan07_16464 (dsDNA) DNA 1: AGATCCAACGAGAGTTATGGACAAACTGGTCCTACAGTCTGTGTTCCGTTGTCCGTGCTG DNA 2: CAGCACGGACAACGGAACACAGACTGTAGGACCAGTTTGTCCATAACTCTCGTTGGATCT | -1 robust z of log adjusted intensity (ours), mean of two arrays
3 | dBr_Jan07_38419 (dsDNA) DNA 1: ATTGCTCAGTGACACAGATATGAAGCGCTATGCATCGTCTGTGTTCCGTTGTCCGTGCTG DNA 2: CAGCACGGACAACGGAACACAGACGATGCATAGCGCTTCATATCTGTGTCACTGAGCAAT | -0.96 robust z of log adjusted intensity (ours), mean of two arrays
4 | dBr_Jan07_18521 (dsDNA) DNA 1: ACCAATTAGAACGTATCTATGGAGCTTGCCCGATCGGTCTGTGTTCCGTTGTCCGTGCTG DNA 2: CAGCACGGACAACGGAACACAGACCGATCGGGCAAGCTCCATAGATACGTTCTAATTGGT | -0.67 robust z of log adjusted intensity (ours), mean of two arrays
5 | dBr_Jan07_17648 (dsDNA) DNA 1: TTGCGCCCCCAGTCCCGGATATCATAGGAACGAGGAGTCTGTGTTCCGTTGTCCGTGCTG DNA 2: CAGCACGGACAACGGAACACAGACTCCTCGTTCCTATGATATCCGGGACTGGGGGCGCAA | -1.18 robust z of log adjusted intensity (ours), mean of two arrays
6 | dBr_Jan07_04879 (dsDNA) DNA 1: ATAACGGCCCGCCTGGACTGATACTCTGTCGCACCAGTCTGTGTTCCGTTGTCCGTGCTG DNA 2: CAGCACGGACAACGGAACACAGACTGGTGCGACAGAGTATCAGTCCAGGCGGGCCGTTAT | -0.92 robust z of log adjusted intensity (ours), mean of two arrays
7 | dBr_Jan07_22788 (dsDNA) DNA 1: TTGTTTCGCATCGCTAGGCATTGATAACGGAAGCTGGTCTGTGTTCCGTTGTCCGTGCTG DNA 2: CAGCACGGACAACGGAACACAGACCAGCTTCCGTTATCAATGCCTAGCGATGCGAAACAA | -0.82 robust z of log adjusted intensity (ours), mean of two arrays
8 | dBr_Jan07_40232 (dsDNA) DNA 1: TCGCGGAGACACCGCACTACGAGTGGCGAGAAGACCGTCTGTGTTCCGTTGTCCGTGCTG DNA 2: CAGCACGGACAACGGAACACAGACGGTCTTCTCGCCACTCGTAGTGCGGTGTCTCCGCGA | -0.86 robust z of log adjusted intensity (ours), mean of two arrays
9 | dBr_Jan07_10789 (dsDNA) DNA 1: ACGAGTGGCCCTCGCATCGCGGAAGCTAGACTGATTGTCTGTGTTCCGTTGTCCGTGCTG DNA 2: CAGCACGGACAACGGAACACAGACAATCAGTCTAGCTTCCGCGATGCGAGGGCCACTCGT | -0.92 robust z of log adjusted intensity (ours), mean of two arrays
10 | dBr_Jan07_36343 (dsDNA) DNA 1: ATCGGTTAAAGTAACTATATTGGGCTTATCGGACCAGTCTGTGTTCCGTTGTCCGTGCTG DNA 2: CAGCACGGACAACGGAACACAGACTGGTCCGATAAGCCCAATATAGTTACTTTAACCGAT | -0.56 robust z of log adjusted intensity (ours), mean of two arrays
11 | dBr_Jan07_14635 (dsDNA) DNA 1: CCTAGAATTCCAACATGACTGTCAACTTGGGAATCTGTCTGTGTTCCGTTGTCCGTGCTG DNA 2: CAGCACGGACAACGGAACACAGACAGATTCCCAAGTTGACAGTCATGTTGGAATTCTAGG | -0.81 robust z of log adjusted intensity (ours), mean of two arrays
12 | dBr_Jan07_39455 (dsDNA) DNA 1: TGAAAGACCTTAGATGGGCTTGTCTCTTGGCGTTTGGTCTGTGTTCCGTTGTCCGTGCTG DNA 2: CAGCACGGACAACGGAACACAGACCAAACGCCAAGAGACAAGCCCATCTAAGGTCTTTCA | -0.88 robust z of log adjusted intensity (ours), mean of two arrays
13 | dBr_Jan07_07252 (dsDNA) DNA 1: ATCCTGCCGCTTTCAATCGCCGGACAGCGATCGACAGTCTGTGTTCCGTTGTCCGTGCTG DNA 2: CAGCACGGACAACGGAACACAGACTGTCGATCGCTGTCCGGCGATTGAAAGCGGCAGGAT | -0.55 robust z of log adjusted intensity (ours), mean of two arrays
14 | dBr_Jan07_33770 (dsDNA) DNA 1: GCGACCCTTCCACGTGCGTGTGTTAATGAGCGCATTGTCTGTGTTCCGTTGTCCGTGCTG DNA 2: CAGCACGGACAACGGAACACAGACAATGCGCTCATTAACACACGCACGTGGAAGGGTCGC | 4.84 robust z of log adjusted intensity (ours), mean of two arrays
15 | dBr_Jan07_22649 (dsDNA) DNA 1: TTACATACCAGGACTTATCGCATAGGTAGGCTGAGAGTCTGTGTTCCGTTGTCCGTGCTG DNA 2: CAGCACGGACAACGGAACACAGACTCTCAGCCTACCTATGCGATAAGTCCTGGTATGTAA | -0.77 robust z of log adjusted intensity (ours), mean of two arrays
16 | dBr_Jan07_34791 (dsDNA) DNA 1: GACTTGCCTACTACGCCAGAATTAGCTAGTTGGGTAGTCTGTGTTCCGTTGTCCGTGCTG DNA 2: CAGCACGGACAACGGAACACAGACTACCCAACTAGCTAATTCTGGCGTAGTAGGCAAGTC | -0.49 robust z of log adjusted intensity (ours), mean of two arrays
17 | dBr_Jan07_28571 (dsDNA) DNA 1: TCGTTCTTATTTTGGCACGTGCACCCGCTTTGCTCAGTCTGTGTTCCGTTGTCCGTGCTG DNA 2: CAGCACGGACAACGGAACACAGACTGAGCAAAGCGGGTGCACGTGCCAAAATAAGAACGA | 5.15 robust z of log adjusted intensity (ours), mean of two arrays
18 | dBr_Jan07_31951 (dsDNA) DNA 1: CATGAGAATCGGCCCGGGTTACGTTCGCGGTACAATGTCTGTGTTCCGTTGTCCGTGCTG DNA 2: CAGCACGGACAACGGAACACAGACATTGTACCGCGAACGTAACCCGGGCCGATTCTCATG | -0.54 robust z of log adjusted intensity (ours), mean of two arrays
19 | dBr_Jan07_19630 (dsDNA) DNA 1: AAGCGAGCAGATAAGCCTAAGCCCGAGCTGAACAAAGTCTGTGTTCCGTTGTCCGTGCTG DNA 2: CAGCACGGACAACGGAACACAGACTTTGTTCAGCTCGGGCTTAGGCTTATCTGCTCGCTT | -0.87 robust z of log adjusted intensity (ours), mean of two arrays
20 | dBr_Jan07_23776 (dsDNA) DNA 1: CAGCCGCGGCGCCTCTAGCAATCAGGAGCGTCGGTAGTCTGTGTTCCGTTGTCCGTGCTG DNA 2: CAGCACGGACAACGGAACACAGACTACCGACGCTCCTGATTGCTAGAGGCGCCGCGGCTG | -0.83 robust z of log adjusted intensity (ours), mean of two arrays
21 | dBr_Jan07_08921 (dsDNA) DNA 1: CAGACAAAGTCACTGGGCGAGCATGAACCGTTTGCCGTCTGTGTTCCGTTGTCCGTGCTG DNA 2: CAGCACGGACAACGGAACACAGACGGCAAACGGTTCATGCTCGCCCAGTGACTTTGTCTG | -0.81 robust z of log adjusted intensity (ours), mean of two arrays
22 | dBr_Jan07_00062 (dsDNA) DNA 1: TGGTGACCTGAGAGGCCGGTTGCTTCAGCCTACAACGTCTGTGTTCCGTTGTCCGTGCTG DNA 2: CAGCACGGACAACGGAACACAGACGTTGTAGGCTGAAGCAACCGGCCTCTCAGGTCACCA | -0.8 robust z of log adjusted intensity (ours), mean of two arrays
23 | dBr_Jan07_33794 (dsDNA) DNA 1: TATTAGAATGTCAGCTCTCAATCACGTGATTCGGAAGTCTGTGTTCCGTTGTCCGTGCTG DNA 2: CAGCACGGACAACGGAACACAGACTTCCGAATCACGTGATTGAGAGCTGACATTCTAATA | 4.69 robust z of log adjusted intensity (ours), mean of two arrays
24 | dBr_Jan07_30609 (dsDNA) DNA 1: CGGAAGTCAGATAAAAGGTGGTATCGCGGCTTTAAAGTCTGTGTTCCGTTGTCCGTGCTG DNA 2: CAGCACGGACAACGGAACACAGACTTTAAAGCCGCGATACCACCTTTTATCTGACTTCCG | -0.46 robust z of log adjusted intensity (ours), mean of two arrays
